The record followed here is patent US20070197431A1 (published 2007).

Assay [1] has as its target T1, human ErbB2 (human, UniProt P04626 23-1255). Nature of the assay: GST pull-down from Sf9 lysates, receptor blot. How it is done:
(§1) For pull-down experiments receptors were expressed in Sf9 insect cells, cleared lysates were incubated for 1.5 hours with 3 μg immobilized GST or GST-32, and beads were washed as previously described (Carraway, K. L., III, et al., Nature, 387:512-16 (1997)). MDA-MB-453 cells were treated for 5 minutes without or with 10 nM NRG1β, lysed as previously described (Sweeney, C., et al., J. Biol. Chem., 275:19803-07 (2000)), and cleared lysates were incubated with GST and GST-32 as above. Precipitated proteins were resolved by 8% SDS-PAGE, transferred to nitrocellulose and visualized by blotting with anti-phosphotyrosine (RC20, Transduction Laboratories) or anti-receptor antibodies.
(§2) To confirm the specificity of the interaction we employed a GST fusion of clone 32 in receptor pull-down experiments. A GST fusion of clone 32 was used instead of full-length Nrdp1 because we observed that GST-Nrdp1 is insoluble in bacteria. We have expressed each of the ErbB family members in Sf9 cells (Carraway, K. L., III, et al., Nature, 387:512-16 (1997)), incubated cleared lysates with immobilized GST or GST-32, and analyzed associated receptors by blotting precipitates with receptor-specific antibodies. We again observed that clone 32 is capable of physically interacting with ErbB3 and ErbB4, but not EGF receptor or ErbB2.

The target of assay [2] is T2, human EGF receptor (human, UniProt P00533 25-1210). Nature of the assay: GST pull-down from Sf9 lysates, receptor blot. How it is done: as §1, §2
The target of assay [3] is T1, human ErbB2. Nature of the assay: co-immunoprecipitation from co-infected Sf9 cells, anti-FLAG blot. From the text:
(§3) Baculovirus encoding Nrdp1 tagged at its amino terminus with FLAG epitope was created as described previously (Guy, P. M., et al., Proc. Natl. Acad. Sci USA., 91:8132-36 ((1994)). Baculoviruses encoding human EGF receptor, human ErbB2, bovine ErbB3 or human ErbB4 have been described previously (Carraway, K. L., III, et al., Nature, 387:512-16 (1997)). For co-immunoprecipitation experiments Sf9 cells were infected with receptor viruses and co-infected either wild type or Nrdp1 baculovirus. 48 hours after infection cleared NP-40 lysates were immunoprecipitated with receptor antibodies and blotted with antibodies directed to receptors or FLAG epitope as described above.

Assay [4] has as its target T2, human EGF receptor. The description is as above.
Text: as §3

B1: GST fusion protein of clone 32 encompassing Nrdp1 residues I135 to I317 (other)
chain: IKHLRSVVQQQQTRIAELEKTSAEHKHQLAEQKRDIQLLKAYMRAIRSVNPNLQNLEETIEYNEILEWVNSLQPARVTRWGGMISTPDAVLQAVIKRSLVESGCPASIVNELIENAHERSWPQGLATLETRQMNRRYYENYVAKRIPGKQAVVVMACENQHMGDDMVQEPGLVMIFAHGVEEI
notes: Expressed in bacteria and immobilized on beads (3 ug) for the pull-downs; also called GST-32; GST fusion of clone 32; not shown: glutathione S-transferase encoded by the pGEX vector
For the molecule B1, the binding result in assay [1] and in assay [2] was “no binding (tested: 3 ug immobilized GST-32)” throughout.

B2: Nrdp1 tagged at its amino terminus with FLAG epitope (baculovirus, Sf9 insect cells) (other)
chain: DYKDDDDKMGYDVTRFQGDVDEDLICPICSGVLEEPVQAPHCEHAFCNACITQWFSQQQTCPVDRSVVTVAHLRPVPRIMRNMLSKLQIACDNAVFGCSAVVRLDNLMSHLSDCEHNPKRPVTCEQGCGLEMPKDELPNHNCIKHLRSVVQQQQTRIAELEKTSAEHKHQLAEQKRDIQLLKAYMRAIRSVNPNLQNLEETIEYNEILEWVNSLQPARVTRWGGMISTPDAVLQAVIKRSLVESGCPASIVNELIENAHERSWPQGLATLETRQMNRRYYENYVAKRIPGKQAVVVMACENQHMGDDMVQEPGLVMIFAHGVEEI
notes: Construct used for the Sf9 co-immunoprecipitations; also called FLAG-Nrdp1; neuregulin receptor degradation protein-1
Take B2: the binding result in assay [3] and in assay [4] was “no binding” in each case.
